Experimental data published in patent US10472401B2, “Peptides and combination of peptides for use in immunotherapy against ovarian cancer and other cancers” (immatics biotechnologies GmbH, priority 2015, dated 2019).

Biological target: HLA-A*02:01 (Homo sapiens, UniProt P04439, D140Y/D185E/D98H/E176V/E277Q/G131W/G231S/I119V/I121R/I166T/I218V/L300P/L318F/N151K/N90K/P208A/P217A/Q86G/Q94H/R138H/R169H/T345S)
Assay: MHC binding assay (UV-ligand exchange, ELISA of stabilized MHC complexes)
Conditions: MHC class I binding score; binding to HLA-A*02:01 ranged by peptide exchange yield (UV-ligand exchange, ELISA)
Text: Candidate peptides for T cell based therapies according to the present invention were further tested for their MHC binding capacity (affinity). The individual peptide-MHC complexes were produced by UV-ligand exchange, where a UV-sensitive peptide is cleaved upon UV-irradiation, and exchanged with the peptide of interest as analyzed. Only peptide candidates that can effectively bind and stabilize the peptide-receptive MHC molecules prevent dissociation of the MHC complexes. To determine the yield of the exchange reaction, an ELISA was performed based on the detection of the light chain (β2m) of stabilized MHC complexes. The assay was performed as generally described in Rodenko et al. (Rodenko et al., 2006).
96 well MAXISorp plates (NUNC) were coated over night with 2 ug/ml streptavidin in PBS at room temperature, washed 4× and blocked for 1h at 37° C. in 2% BSA containing blocking buffer. […] Peptide-MHC monomers of the UV-exchange reaction were diluted 100 fold in blocking buffer. Samples were incubated for 1h at 37° C., washed four times, incubated with 2 ug/ml HRP conjugated anti-82m for 1h at 37° C., washed again and detected with TMB solution that is stopped with […]. Absorption was measured at 450 nm. Candidate peptides that show a high exchange yield (preferably higher than 50%, most preferred higher than 75%) are generally preferred for a generation and production of antibodies or fragments thereof, and/or T cell receptors or fragments thereof, as they show sufficient avidity to the MHC molecules and prevent dissociation of the MHC complexes.

Row | Substance | Peptide exchange
1 | 246 (LLWEVVSQL; listed as Homo sapiens) [compound 246] | ″+++″ (≥50% = +++)
2 | 455 (SLLKEPQKVQL; listed as Homo sapiens) [compound 455] | ″++″ (≥20% = ++)
3 | 551 (KLYESLLPFA; listed as Homo sapiens) [compound 551] | ″+++″ (≥50% = +++)
4 | 276 (ALFTFSPLTV; listed as Homo sapiens) [compound 276] | ″+++″ (≥50% = +++)
5 | 130 (FLWNGEDSALL; listed as Homo sapiens) [compound 130] | ″+++″ (≥50% = +++)
6 | 387 (ALFQATAEV; listed as Homo sapiens) [compound 387] | ″++++″ (≥75% = ++++)
7 | 205 (SLYPGTETMGL; listed as Homo sapiens) [compound 205] | ″+++″ (≥50% = +++)
8 | 378 (ALGYFVPYV; listed as Homo sapiens) [compound 378] | ″+++″ (≥50% = +++)
9 | 373 (SLLEDKGLAEV; listed as Homo sapiens) [compound 373] | ″++″ (≥20% = ++)
10 | 397 (YLFGERLLEC; listed as Homo sapiens) [compound 397] | ″+++″ (≥50% = +++)
11 | 116 (YHIDEEVGF; listed as Homo sapiens) [compound 116] | ″+″ (≥10% = +)
12 | 133 (KVLSNIHTV; listed as Homo sapiens) [compound 133] | ″++″ (≥20% = ++)
13 | 598 (FLFPHSVLV; listed as Homo sapiens) [compound 598] | ″+++″ (≥50% = +++)
14 | 542 (RVWDISTVSSV; listed as Homo sapiens) [compound 542] | ″+++″ (≥50% = +++)
15 | 221 (ALYEEGLLL; listed as Homo sapiens) [compound 221] | ″++″ (≥20% = ++)
16 | 238 (YLISFQTHI; listed as Homo sapiens) [compound 238] | ″+++″ (≥50% = +++)
17 | 449 (KLAEGLDIQL; listed as Homo sapiens) [compound 449] | ″+++″ (≥50% = +++)

Row | Substance | Peptide exchange
18 | 88 (FLLVGDLMAV; listed as Homo sapiens) [compound 88] | ″+++″ (≥50% = +++)
19 | 132 (LLVEQPPLAGV; listed as Homo sapiens) [compound 132] | ″+++″ (≥50% = +++)
20 | 241 (SLVEVNPAYSV; listed as Homo sapiens) [compound 241] | ″+++″ (≥50% = +++)
21 | 223 (ALLENIALYL; listed as Homo sapiens) [compound 223] | ″+++″ (≥50% = +++)
22 | 578 (FLDPGGPMMKL; listed as Homo sapiens) [compound 578] | ″+++″ (≥50% = +++)
23 | 509 (FLFDTKPLIV; listed as Homo sapiens) [compound 509] | ″+++″ (≥50% = +++)
24 | 183 (FGLDLVTEL; listed as Homo sapiens) [compound 183] | ″+++″ (≥50% = +++)
25 | 47 (ILLSVPLLVV; listed as Homo sapiens) [compound 47] | ″++″ (≥20% = ++)
26 | 189 (ALQRKLPYV; listed as Homo sapiens) [compound 189] | ″+++″ (≥50% = +++)
27 | 302 (ALLQEGEVYSA; listed as Homo sapiens) [compound 302] | ″+++″ (≥50% = +++)
28 | 137 (TLVLTLPTV; listed as Homo sapiens) [compound 137] | ″++++″ (≥75% = ++++)
29 | 147 (SLLEAVSFL; listed as Homo sapiens) [compound 147] | ″+++″ (≥50% = +++)
30 | 554 (LLMPSSEDLLL; listed as Homo sapiens) [compound 554] | ″+++″ (≥50% = +++)
31 | 448 (NLLETKLQL; listed as Homo sapiens) [compound 448] | ″+++″ (≥50% = +++)
32 | 556 (FLTDLEDLTL; listed as Homo sapiens) [compound 556] | ″+++″ (≥50% = +++)
33 | 512 (SLSEIVPCL; listed as Homo sapiens) [compound 512] | ″+++″ (≥50% = +++)

Continued, values first:

Row | Peptide exchange | Substance
34 | ″+++″ (≥50% = +++) | 572 (ALADLIEKELSV; listed as Homo sapiens) [compound 572]
35 | ″++″ (≥20% = ++) | 231 (FLSPQQPPLLL; listed as Homo sapiens) [compound 231]
36 | ″+++″ (≥50% = +++) | 450 (FMIDASVHPTL; listed as Homo sapiens) [compound 450]
37 | ″+++″ (≥50% = +++) | 78 (SLFSSLEPQIQPV; listed as Homo sapiens) [compound 78]
38 | ″+++″ (≥50% = +++) | 42 (VLLQKIVSA; listed as Homo sapiens) [compound 42]
39 | ″+++″ (≥50% = +++) | 155 (RVANLHFPSV; listed as Homo sapiens) [compound 155]
40 | ″+++″ (≥50% = +++) | 492 (SLFDGFADGLGV; listed as Homo sapiens) [compound 492]
41 | ″+++″ (≥50% = +++) | 256 (FLPPEHTIVYI; listed as Homo sapiens) [compound 256]
42 | ″+++″ (≥50% = +++) | 27 (ILADIVISA; listed as Homo sapiens) [compound 27]
43 | ″++″ (≥20% = ++) | 353 (YLFEMDSSL; listed as Homo sapiens) [compound 353]
44 | ″++″ (≥20% = ++) | 590 (SLIEKLWQT; listed as Homo sapiens) [compound 590]
45 | ″++″ (≥20% = ++) | 148 (ALNPEIVSV; listed as Homo sapiens) [compound 148]
46 | ″+″ (≥10% = +) | 230 (ILVDWLVEV; listed as Homo sapiens) [compound 230]
47 | ″++″ (≥20% = ++) | 434 (KVSNSGITRV; listed as Homo sapiens) [compound 434]
48 | ″+++″ (≥50% = +++) | 344 (YLQDQHLLLTV; listed as Homo sapiens) [compound 344]
49 | ″++″ (≥20% = ++) | 392 (ALLHPQGFEV; listed as Homo sapiens) [compound 392]
50 | ″++″ (≥20% = ++) | 33 (VLLSLLEKV; listed as Homo sapiens) [compound 33]
51 | ″++++″ (≥75% = ++++) | 339 (GLWEIENNPTVKA; listed as Homo sapiens) [compound 339]
52 | ″+++″ (≥50% = +++) | 208 (KISPVTFSV; listed as Homo sapiens) [compound 208]
53 | ″+++″ (≥50% = +++) | 138 (YQYPRAILSV; listed as Homo sapiens) [compound 138]
54 | ″++″ (≥20% = ++) | 253 (GLDAATATV; listed as Homo sapiens) [compound 253]
55 | ″++++″ (≥75% = ++++) | 310 (FLVDTPLARA; listed as Homo sapiens) [compound 310]
56 | ″+++″ (≥50% = +++) | 501 (LLDPNVKSIFV; listed as Homo sapiens) [compound 501]
57 | ″+++″ (≥50% = +++) | 90 (TLLQIIETV; listed as Homo sapiens) [compound 90]
58 | ″+++″ (≥50% = +++) | 165 (SLLDEIRAV; listed as Homo sapiens) [compound 165]
